Target: T1, Aleuria Aurantia Lectin (AAL) (Aleuria aurantia, UniProt P18891 2-313)
T1 construct: Used as the probe in lectin blotting
T1 sequence (looked up): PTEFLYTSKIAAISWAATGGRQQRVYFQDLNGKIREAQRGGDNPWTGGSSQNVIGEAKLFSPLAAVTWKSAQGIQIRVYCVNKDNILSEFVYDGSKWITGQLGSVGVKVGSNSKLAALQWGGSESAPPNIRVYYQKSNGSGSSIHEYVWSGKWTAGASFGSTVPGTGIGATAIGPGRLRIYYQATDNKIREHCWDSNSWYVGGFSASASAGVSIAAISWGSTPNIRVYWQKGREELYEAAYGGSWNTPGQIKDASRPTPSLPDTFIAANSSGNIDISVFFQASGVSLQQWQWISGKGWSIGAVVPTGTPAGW
Assay: lectin blotting
Protocol: It was reported that the natural WFA (nWFA) has a sugar chain including fucose, and thus, the lectin blotting was performed using Aleuria Aurantia Lectin (AAL) recognizing fucose. As a result, it was confirmed that the nWFA was a glycoprotein including a sugar chain that reacted to AAL (FIGS. 5A and 5B).

B1: natural Wisteria floribunda lectin (nWFA), purified, purchased from Vector Lab (other)
chain: KETTSFVFTRFSPDPQNLLLQGDTVVTSSGHLQLTQVKDGEPVYSSLGRALYYAPIHIWDSNTDTVANFVTSFSFVIDAPNKAKAADGLAFFLAPVDTEPQKPGGLLGLFHDDRHNKSNHIVAVEFDTFKNSWDPEGTHIGINVNSIVSRKTTSWDLENGEVANVVISYQASTKTLTASLVYPSSSTSYILNDVVDLKQILPEYVRVGFTAASGLSKDHVETHDVLAWTFDSDLPDPSSDDCN
modifications: one N-glycan (fucose-containing) expected at Asn146; disulfide bond between the two Cys272
notes: Lectin purified from seeds; Disulfide-linked dimer of about 60 KDa; also called natural WFA; nature-derived WFA
B1: binds.

Reference: US20180134756A1 (NATIONAL INSTITUTE OF ADVANCED INDUSTRIAL SCIENCE AND …, published 2018)
